# Measured values as given in patent US20080102459A1, “Method of Screening Antiobesity Agents” (ASTELLAS PHARMA INC., priority 2004, published 2008).
# B1: AGF protein: angiopoietin-related growth factor protein, species not stated in Example 16 (protein, UniProt Q8NI99 21-470, looked up)
# Angiopoietin-related protein 6: RAGAPRCTYTFVLPPQKFTGAVCWSGPASTRATPEAANASELAALRMRVGRHEELLRELQRLAAADGAVAGEVRALRKESRGLSARLGQLRAQLQHEAGPGAGPGADLGAEPAAALALLGERVLNASAEAQRAAARFHQLDVKFRELAQLVTQQSSLIARLERLCPGGAGGQQQVLPPPPLVPVVPVRLVGSTSDTSRMLDPAPEPQRDQTQRQQEPMASPMPAGHPAVPTKPVGPWQDCAEARQAGHEQSGVYELRVGRHVVSVWCEQQLEGGGWTVIQRRQDGSVNFFTTWQHYKAGFGRPDGEYWLGLEPVYQLTSRGDHELLVLLEDWGGRGARAHYDGFSLEPESDHYRLRLGQYHGDAGDSLSWHNDKPFSTVDRDRDSYSGNCALYQRGGWWYHACAHSNLNGVWHHGGHYRSRYQDGVYWAEFRGGAYSLRKAAMLIRPLKL
# B2: human AGF protein: FLAG-tagged recombinant human angiopoietin-related growth factor purified from HEK293 culture supernatant (protein)
# chain: B1 Angiopoietin-related protein 6
# modifications: left off: small tags and cut ends
# notes: FLAG-tagged recombinant human angiopoietin-related growth factor purified from HEK293 culture supernatant
# B3: mouse AGF protein: FLAG-tagged recombinant mouse angiopoietin-related growth factor purified from HEK293 culture supernatant (protein)
# chain: ARCRVTLVLSPQKATSAVCRSSEATQDSELATLRMRLGRHEELLRALQRRAAEGGALADEVRALREHSLTLNTRLGQLRAQLQQEARAEPDLGAEPAAALGLLAERALDAEAEARRTTARLQQLDAQLREHAQLMSQHSSLLGRLQRACAGPERGQQQVLPLPLAPLVPLSLVGSASNTSRRLDQTPEHQREQSLRQQGPPSSLLPTGHLAVPTRPVGPWRDCAEAHGAGHWQSGVYDLRLGRRVVAVWCEQQQEGGGWTVIQRRQDGSVNFFTNWQHYKAGFGRPEGEYWLGLEPVHQVTSRGDHELLILLEDWGGRAARAHYDSFSLEPESDHYRLRLGQYHGDAGDSLSWHNDKPFSTVDRDRDSYSGNCALYHRGGWWYHACAHSNLNGVWYHGGHYRSRYQDGVYWAEFRGGAYSLKKAVMLTRLVRL
# modifications: left off: small tags and cut ends
# notes: FLAG-tagged recombinant mouse angiopoietin-related growth factor purified from HEK293 culture supernatant
# How the values were obtained:
# AGF gene = assay: Amount of AGF gene expressed in C2C12 cells by quantitative PCR; format: cell-based, mouse; settings: 48 hours, compensated by cyclophilin, insulin at 100 nmol/L
# Method: C2C12 cells (ATCC No.: CRL-1772) were added to a 24-well collagen-coated plate (ASAHI TECHNO GLASS) to become 20000 cells per well, and cultured with a Dulbecco's modified Eagle's medium (DMEM) supplemented with 15% fetal bovine serum, for one day. After insulin (Biomedical Technologies Inc) was added to the medium to a final concentration of 100 nmol/L, or after the medium was changed to the culture supernatant of 3T3-L1 prepared in Example 11, the C2C12 cells were cultured for 48 hours. As a control, the C2C12 cells were cultured with DMEM supplemented with 15% fetal bovine serum for 48 hours, without such treatments. After the cultivation, total RNAs were prepared from treated cells using an RNeasy Mini Kit (Qiagen) in accordance with a protocol attached thereto, and 500 ng thereof was converted to cDNAs using a Thermoscript RT-PCR system kit (Invitrogen).
# Amounts of AGF gene expressed in C2C12 cells were measured by a quantitative PCR, using DNAs of SEQ ID NOS: 29 and 30 as primers for amplifying the mouse AGF, cDNAs (derived from culture supernatants of C2C12 cells) prepared in Example 12 as a template, and a sequence detector (ABI PRISM 7900; Applied Biosystems). […]
# MAPK p42 = assay: MAPK phosphorylation by AGF stimulation, Western blotting, C2C12 cells differentiated into muscle; format: cell-based, mouse; settings: AGF protein 1 μg/mL, 10 minutes, versus PBS
# Method: (§1) C2C12 cells were cultured with a growth medium (DMEM supplemented with 10% FCS) in a type I collagen coated 12-well plate to become confluent. After the medium was changed to a differentiation medium (DMEM supplemented with 2% horse serum), the C2C12 cells were cultured for 7 days to differentiate them into muscle. The cells were cultured in a serum-free medium containing 1% BSA, and the medium was changed to the same medium. The AGF protein (final concentration=1 μg/mL) or an equal volume of PBS was added. After 10 minutes, the medium was remove by suction, and the reaction was stopped by adding 50 μL of a solution for cell lysis [50 mmol/L HEPES (pH7.2), 1% Triton X-100, 10% glycerol, 10 mmol/L Na4P2O7, 100 mmol/L NaF, 100 μmol/L Na3VO4, 40 mmol/L EDTA, 50 μg/mL aprotinin, 1 mmol/L phenylmethyl sulfonyl fluoride (PMSF), 0.1 mmol/L leupeptin, and 25 μmol/L pepstatin A] to the cells. To each cell lysate sample obtained, an SDS-sample buffer [20% glycerol, 130 mmol/L Tris-HCl (pH6.8), 10% 2-mercaptoethanol, 6% SDS, and 0.2 mg/mL bromphenol blue] was added, and each sample was subjected to SDS-PAGE and blotted to a polyvinylidene fluoride (PVDF) membrane. Western blotting was carried out, using an anti-phosphorylated MAPK p38 antibody (Cell signaling #9211), an anti-phosphorylated MAPK p42/p44 antibody (Cell signaling #9101), an anti-MAPK p38 antibody (Cell signaling #9212), or an anti-MAPK p42/44 antibody (Cell signaling #9102) as the first antibody and an HRP-labeled anti-mouse IgG antibody (Example 9) as the second antibody, to detect a phosphorylation of MAPK p38, MAPK p42, and MAPK p44. The result of Western blotting was scanned using a scanner, and a concentration of each phosphorylated band was quantitated by an image analyzing software.
# MAPK p38 = assay: as above; format: cell-based, mouse; settings: AGF protein 1 μg/mL, 10 minutes, versus PBS
# Method: as §1
# MAPK p44 = assay: as above; format: cell-based, mouse; settings: AGF protein 1 μg/mL, 10 minutes, versus PBS
# Method: as §1
# MAPK [1] = assay: MAPK phosphorylation by AGF stimulation in HUVEC; format: cell-based, human; settings: HUVEC instead of C2C12
# MAPK [2] = assay: MAPK phosphorylation by AGF stimulation in ATDC5; format: cell-based; settings: ATDC5 instead of C2C12
# ATDC5 cells = assay: Binding of AGF protein to cell line, flow cytometry; settings: protein 10 μg/mL, 4° C., 30 minutes; PI negative cells
# Method: ATDC5 cells were cultured in a growth medium (DMEM/F12 with 5% FCS) to become subconfluent, and removed from a plate by a cell scraper. The cells were washed twice with an FCM buffer (0.1% BSA/1 mmol/L CaCl2/1 mmol/L MgCl2/PBS), and reacted with or without the mouse AGF protein or the human AGF protein at 4° C. for 30 minutes, at a final concentration of 10 μg/mL of the protein. The cells were washed with the FCM buffer, and reacted with fluorescein isothiocyanate (FITC)-labeled M2 antibody (Sigma) at 4° C. for 30 minutes, at a final concentration of 10 μg/mL. The cells were washed three times with the FCM buffer, and propidium iodide (PI) was added to the cells at a final concentration of 1 μg/mL, to stain death cells. The cells were analyzed using a flow cytometer (Cytomics FC 500; Beckman Coulter, Inc.), and an FITC intensity derived from PI negative cells other than death cells was measured.
# Since the FLAG sequence was added to the human AGF protein and the mouse AGF protein, when the M2 antibody specific to the FLAG sequence was used, the FITC-labeled M2 antibody bound to the AGF protein which bound to cells, and thus, the fluorescence intensity of cells to which the AGF protein bound was increased. […]
molecule,measurement,setting,value
insulin,induction of AGF expression in comparison with untreated control,AGF gene,approximately 6 times
B1,increase of phosphorylation in phosphorylated MAPK p42,MAPK p42,3.4 times
same,increase of phosphorylation in phosphorylated MAPK p38,MAPK p38,1.6 times
same,increase of phosphorylation in phosphorylated MAPK p44,MAPK p44,4.3 times
same,phosphorylation of MAPK,MAPK [1],promoted
same,phosphorylation of MAPK,MAPK [2],promoted
B2,increase of the fluorescence intensity (FITC-labeled M2 antibody) of cells,ATDC5 cells,8.1 times
B3,increase of the fluorescence intensity (FITC-labeled M2 antibody) of cells,ATDC5 cells,1.5 times
